In the Human Domainome abundance scans (Beltran et al. 2025):
± gives the uncertainty stated by the source.

B1: Serine/threonine-protein kinase A-Raf, residues 21 to 89; numbered along this chain, P10398 (parent)
chain: VKVYLPNKQRTVVTVRDGMSVYDSLDKALKVRGLNQDCCVVYRLIKGRKTVTAWDTAIAPLDGEELIVE

Variants of: B1
Test: abundance fitness (aPCA) (normalised: wild type 0, dead -1); higher = more abundant; growth selection in yeast, the domain comes from the species named
Conditions: Homo sapiens

Abundance fitness, by site and new letter:
K46: T -0.383 ± 0.069, D 0.199 ± 0.2, P -0.941 ± 0.14, E 0.102 ± 0.08, W -0.667 ± 0.093, C -0.133 ± 0.11, S -0.08 ± 0.058, L -0.437 ± 0.063, A 0.001 ± 0.037, Q -0.009 ± 0.067, N 0.228 ± 0.17, G 0.014 ± 0.039, R -0.024 ± 0.034, Y -0.41 ± 0.31, V -0.792 ± 0.089, H -0.259 ± 0.11
G33: R -0.712 ± 0.081, C -0.694 ± 0.2, Y -0.894 ± 0.32, V -0.573 ± 0.069, T -0.626 ± 0.2, Q -0.576 ± 0.12, K -0.41 ± 0.16, S -0.525 ± 0.089, E -0.26 ± 0.22, D -0.416 ± 0.2, L -0.942 ± 0.2, P -0.953 ± 0.24, A -0.546 ± 0.12, N -0.473 ± 0.14, M -0.037 ± 0.091
G47: S -0.734 ± 0.11, F -0.998 ± 0.25, P -0.959 ± 0.19, K -0.768 ± 0.21, D -0.71 ± 0.21, M -1.06 ± 0.2, L -0.873 ± 0.091, H -0.907 ± 0.21, C -0.826 ± 0.17, E -0.573 ± 0.083, N -0.665 ± 0.27, V -0.863 ± 0.097, Q -0.359 ± 0.14, R -0.841 ± 0.11
K30: W -0.969 ± 0.15, V -0.713 ± 0.094, A -0.218 ± 0.047, N -0.478 ± 0.29, F -0.574 ± 0.12, C -0.583 ± 0.13, S -0.265 ± 0.075, H -0.83 ± 0.29, Q -0.217 ± 0.063, L -0.561 ± 0.087, M -0.288 ± 0.097, E -0.336 ± 0.088, G -0.426 ± 0.053, Y -0.403 ± 0.13, R -0.006 ± 0.032, I -0.63 ± 0.47, P -0.957 ± 0.19, T -0.152 ± 0.095
N35: L -0.32 ± 0.044, K -0.063 ± 0.086, I -0.682 ± 0.19, T 0.025 ± 0.064, H -0.415 ± 0.37, D -0.132 ± 0.12, W -0.866 ± 0.15, F -0.449 ± 0.18, P -0.754 ± 0.15, A -0.188 ± 0.066, Y -0.019 ± 0.21, V -0.161 ± 0.053, M -0.321 ± 0.081, R -0.101 ± 0.04, Q -0.221 ± 0.069, G -0.154 ± 0.041, E 0.016 ± 0.068
V40: E -0.253 ± 0.11, M -0.058 ± 0.098, K -0.117 ± 0.13, T -0.164 ± 0.072, A -0.021 ± 0.055, P -0.925 ± 0.2, L -0.259 ± 0.057, G -0.857 ± 0.094, F -0.828 ± 0.14, R -0.131 ± 0.051, Q 0.073 ± 0.14, I -0.09 ± 0.15, Y -0.273 ± 0.093, C -0.087 ± 0.072, S -0.321 ± 0.05
L44: I 0.073 ± 0.082, S -0.15 ± 0.06, F -0.197 ± 0.13, D -0.65 ± 0.45, M 0.069 ± 0.072, A -0.475 ± 0.07, W -0.059 ± 0.067, T -0.169 ± 0.082, N -0.082 ± 0.17, Y -0.037 ± 0.2, P -0.853 ± 0.17, K -0.031 ± 0.076, R -0.108 ± 0.044, G -0.767 ± 0.09, E -0.279 ± 0.08, C -0.684 ± 0.38, V -0.112 ± 0.052, Q -0.307 ± 0.1
C38: Q -0.037 ± 0.072, I -0.074 ± 0.1, R -0.094 ± 0.051, G 0.038 ± 0.052, E 0.118 ± 0.091, F -0.136 ± 0.097, H -0.019 ± 0.11, V -0.075 ± 0.063, N 0.141 ± 0.3, T -0.004 ± 0.082, M 0.12 ± 0.09, W -0.179 ± 0.059, P -0.677 ± 0.14, Y -0.082 ± 0.12
I45: D -0.1 ± 0.13, S -0.087 ± 0.071, R -0.098 ± 0.053, F -0.179 ± 0.074, T -0.319 ± 0.12, A -0.318 ± 0.079, Q -0.078 ± 0.087, Y -0.077 ± 0.19, K 0.089 ± 0.18, W -0.1 ± 0.073, M -0.508 ± 0.12, H -0.026 ± 0.14, P -1.1 ± 0.32, E -0.224 ± 0.079, G -0.198 ± 0.12, C -0.458 ± 0.2, N -0.435 ± 0.27, V -0.067 ± 0.12, L -0.11 ± 0.051
L29: I -0.907 ± 0.34, C -0.995 ± 0.3, W -0.601 ± 0.07, S -0.558 ± 0.072, N -0.607 ± 0.25, V -0.806 ± 0.095, Q -0.913 ± 0.23, A -0.933 ± 0.18, M 0.191 ± 0.058, R -0.969 ± 0.099, F -0.191 ± 0.13, E -0.947 ± 0.13, G -0.941 ± 0.11, P -0.958 ± 0.096, T -0.845 ± 0.2
R32: I 0.188 ± 0.13, W -0.203 ± 0.057, L 0.046 ± 0.07, D -0.487 ± 0.34, N 0.141 ± 0.13, T -0.2 ± 0.08, Q 0.065 ± 0.044, P -0.59 ± 0.19, K -0.369 ± 0.068, H 0.1 ± 0.18, Y -0.012 ± 0.19, F -0.009 ± 0.26, G -0.298 ± 0.053, C -0.162 ± 0.21, S -0.141 ± 0.058, M 0.12 ± 0.06, A 0.088 ± 0.063, V 0.019 ± 0.055, E -0.193 ± 0.045
A28: P -0.15 ± 0.083, I -0.271 ± 0.29, T -0.206 ± 0.098, L 0.029 ± 0.044, Q -0.438 ± 0.096, F -0.122 ± 0.27, W -0.425 ± 0.048, Y -0.274 ± 0.14, V 0.1 ± 0.042, R -1.06 ± 0.14, E -0.195 ± 0.13, M -0.037 ± 0.087, D -0.371 ± 0.14, G -0.78 ± 0.09, S -0.263 ± 0.067, C -0.223 ± 0.11
R43: H -0.072 ± 0.42, G -0.907 ± 0.13, D -0.939 ± 0.43, L -0.963 ± 0.12, P -0.822 ± 0.33, W -0.911 ± 0.38, C -0.742 ± 0.15, E -0.824 ± 0.3, K -0.205 ± 0.083, N -0.602 ± 0.43, M -1 ± 0.23, I -1 ± 0.37, S -0.305 ± 0.061, V -0.703 ± 0.096, T -0.225 ± 0.067, Q -0.102 ± 0.076, A -0.721 ± 0.14
Y42: Q -0.945 ± 0.38, N -0.159 ± 0.25, G -0.824 ± 0.089, T -0.561 ± 0.09, P -0.926 ± 0.15, L -1.02 ± 0.17, H -0.557 ± 0.12, D -0.928 ± 0.21, E -1.02 ± 0.26, S -0.525 ± 0.093, W -0.366 ± 0.064, R -1.15 ± 0.23, V -0.864 ± 0.1, F -0.004 ± 0.069, A -1.05 ± 0.22, I -0.844 ± 0.35, K -0.481 ± 0.16, M -0.684 ± 0.13
V41: P -0.555 ± 0.15, W -0.549 ± 0.1, I -0.507 ± 0.17, G -0.899 ± 0.12, K -0.685 ± 0.15, M -0.711 ± 0.16, Y -0.938 ± 0.38, Q -0.849 ± 0.17, A -0.274 ± 0.061, C -0.15 ± 0.072, L -0.143 ± 0.036, S -0.515 ± 0.17, D -0.841 ± 0.19, F -0.846 ± 0.24, N -0.836 ± 0.31, T -0.8 ± 0.28, R -0.559 ± 0.099, H -0.641 ± 0.25
C39: S -0.585 ± 0.11, R -0.987 ± 0.2, I -0.766 ± 0.27, V -0.161 ± 0.066, N -0.848 ± 0.2, P -0.805 ± 0.2, W -0.841 ± 0.38, G -0.944 ± 0.18, E -1.16 ± 0.36, H -0.171 ± 0.093, A -0.504 ± 0.1, F -0.466 ± 0.13, M -0.432 ± 0.1
L34: S -0.835 ± 0.17, T -1.05 ± 0.23, G -1.1 ± 0.15, M -0.135 ± 0.059, Y -0.459 ± 0.22, F -0.074 ± 0.14, A -1.02 ± 0.17, P -0.833 ± 0.15, W -0.27 ± 0.055, H -0.789 ± 0.22, V -1 ± 0.15, C -0.644 ± 0.13, R -1 ± 0.12
Q36: V -0.028 ± 0.065, Y -0.169 ± 0.17, T -0.162 ± 0.069, L -0.335 ± 0.072, K 0.046 ± 0.15, E -0.485 ± 0.3, A -0.043 ± 0.071, I -0.043 ± 0.12, M -0.18 ± 0.082, R 0.058 ± 0.083, S -0.178 ± 0.072, P -0.03 ± 0.067, F -0.134 ± 0.12, H -0.203 ± 0.077, C -0.206 ± 0.12, G -0.398 ± 0.09, D -0.582 ± 0.31, N -0.574 ± 0.22
V31: E 0.066 ± 0.067, C -0.103 ± 0.086, D -0.265 ± 0.25, R 0.004 ± 0.046, K -0.042 ± 0.079, W -0.305 ± 0.072, T 0.015 ± 0.08, N -0.073 ± 0.17, L 0.005 ± 0.046, I -0.076 ± 0.07, G -0.086 ± 0.04, A 0.111 ± 0.056, P -0.41 ± 0.1, F -0.187 ± 0.12, M -0.045 ± 0.082, Y -0.278 ± 0.15
K27: R -0.046 ± 0.2, Q -0.39 ± 0.37
D37: G -0.219 ± 0.061, I -0.39 ± 0.26, H -0.097 ± 0.1, M -0.499 ± 0.098, S -0.196 ± 0.079, P -0.662 ± 0.26, R -0.198 ± 0.059, L -0.567 ± 0.089, A -0.39 ± 0.097, E -0.141 ± 0.15, T -0.387 ± 0.16, N -0.186 ± 0.15, V -0.755 ± 0.13, Q 0.14 ± 0.15, C -0.273 ± 0.098, W -0.838 ± 0.31, Y -0.408 ± 0.15
D26: V -0.065 ± 0.051, R 0.023 ± 0.051, T -0.277 ± 0.12, Y -0.182 ± 0.14, S -0.113 ± 0.069, W -0.113 ± 0.061
